Measurements from paper PMC8961594.

Key:
[1] = molecular target: Histone 2B (H2B) on the surface of HUVECs (human (endogenous in HUVEC)) (UniProt P62807)
[2] = molecular target: Histone 2B (H2B) on the surface of HUVECs (human (endogenous in HUVEC)) (UniProt P62807); remark: listed apart in the source

Human Glu-plasminogen (ligand)
Plg-mediated migration of HUVECs in Boyden chambers: decrease by anti-H2B against Plg-treated cells with control mouse IgG (Figure 3B) [1]: 50% | migration of Plg-treated (200 nM) HUVECs in Boyden chambers: decrease by Fab of the anti-H2B mAb (20 µg/mL) against control mouse Fab (Figure 3A) [2]: 47%
